These results are taken from US20020119944A1.

The test deals with neuropilin-1 on adult rat brain oligodendrocytes (rat) (UniProt Q9QWJ9).

With Sema3A (ligand), the branching index (BI) of oligodendrocyte process extension (% decrease of BI at 48 h) turned out to be 81 and the half-effect, corresponding to a BI reduction of 50% worked out at 25 ng/mL.
